Source: publication PMC11243337, “Self-Responsive Fluorescence Aptasensor for Lactoferrin Determination in Dairy Products”

Target: Lactoferrin (Lf) (bovine (cow's milk), UniProt P24627 20-708)
Assay: fluorescence quenching (6-FAM); Tris-EDTA, no added ions; Lf 5 and 40 ug/mL; Tris-EDTA pH 8.0, no added salt, 25 C, 10 min; 90 uL of 50 nM aptamer + 100 uL Lf (0-100 ug/mL); Ex 485/Em 528 nm. Specificity section (alpha-La, beta-Lg, BSA)
Conditions: protein: commercial; label: 3'-6-FAM

Sequence of Lactoferrin (Lf) (P24627 20-708): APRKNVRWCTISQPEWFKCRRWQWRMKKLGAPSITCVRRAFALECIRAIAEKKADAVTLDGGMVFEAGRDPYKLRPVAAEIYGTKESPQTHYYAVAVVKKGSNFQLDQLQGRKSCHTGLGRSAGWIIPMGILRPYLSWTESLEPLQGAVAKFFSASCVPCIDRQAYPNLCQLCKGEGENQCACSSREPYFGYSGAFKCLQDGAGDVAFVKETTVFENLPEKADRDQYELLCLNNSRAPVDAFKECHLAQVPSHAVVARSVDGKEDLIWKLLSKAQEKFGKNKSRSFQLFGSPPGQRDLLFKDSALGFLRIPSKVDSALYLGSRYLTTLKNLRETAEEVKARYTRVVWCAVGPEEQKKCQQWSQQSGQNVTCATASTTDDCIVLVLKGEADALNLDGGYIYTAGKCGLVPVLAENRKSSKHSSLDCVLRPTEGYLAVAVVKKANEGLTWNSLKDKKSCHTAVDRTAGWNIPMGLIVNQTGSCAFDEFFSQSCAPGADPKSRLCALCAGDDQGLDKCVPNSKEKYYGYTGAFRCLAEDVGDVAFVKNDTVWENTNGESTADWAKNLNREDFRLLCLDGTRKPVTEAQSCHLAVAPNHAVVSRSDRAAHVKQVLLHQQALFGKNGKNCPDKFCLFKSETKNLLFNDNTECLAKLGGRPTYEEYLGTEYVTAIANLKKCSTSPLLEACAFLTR

B1: Lf aptamer, 3'-6-FAM (ssDNA)
DNA: TGGTGCTGCCCCTAGTCTCCGGCTGATAGCTGCTTCTTGG
  binding result: binds
